{"source": "paper PMC13181292", "about": "(2026)", "molecules": {"B1": {"name": "SNAP-tag-GPVI and HaloTag-GPVI coexpressed on CHO-K1 cells (receptor)", "chain": "QSGPLPKPSLQALPSSLVPLEKPVTLRCQGPPGVDLYRLEKLSSSRYQDQAVLFIPAMKRSLAGRYRCSYQNGSLWSLPSDQLELVATGVFAKPSLSAQPGPAVSSGGDVTLQCQTRYGFDQFALYKEGDPAPYKNPERWYRASFPIITVTAAHSGTYRCYSFSSRDPYLWSAPSDPLELVVTGTSVTPSRLPTEPPSPVAEFSEATAELTVSFTNEVFTTETSRSITASPKESDSPAGPARQYYTKGNLVRICLGAVILIILAGFLAEDWHSRRKRLRHRGRAVQRPLPPLPPLPLTRKSNGGQDGGRQDVHSRGLCS", "modifications": "SNAP-tag labeled with SNAP-Surface Alexa Fluor-647; HaloTag labeled with Janelia Fluor-549"}}, "key": {"[1]": {"target": "CLEC-2 C-type lectin-like domain (Mus musculus) (UniProt Q9JL99)", "sequence (Q9JL99 109-217)": "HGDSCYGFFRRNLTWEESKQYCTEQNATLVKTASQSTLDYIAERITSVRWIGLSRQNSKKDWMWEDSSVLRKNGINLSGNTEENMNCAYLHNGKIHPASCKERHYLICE", "assay": "SPR", "settings": "cited from earlier work"}, "[2]": {"target": "CLEC-2 C-type lectin-like domain (Homo sapiens) (UniProt Q9P126)", "sequence (Q9P126 109-217)": "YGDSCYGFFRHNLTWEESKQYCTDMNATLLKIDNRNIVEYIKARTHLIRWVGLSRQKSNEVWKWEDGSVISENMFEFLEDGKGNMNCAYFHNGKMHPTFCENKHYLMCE", "assay": "SPR", "settings": "cited from earlier work"}, "[3]": {"target": "the molecule itself", "assay": "divalent nanobody Nb2-2 (100 nM)"}}}
{"molecule": "CLEC-2 C-type lectin-like domain (from UniProt Q9JL99)", "values": [{"measurement": "Kd", "setting": "[1]", "result": 499, "unit": "nM"}]}
{"molecule": "CLEC-2 C-type lectin-like domain (from UniProt Q9P126)", "values": [{"measurement": "Kd", "setting": "[2]", "result": 278, "unit": "nM"}]}
{"molecule": "B1", "values": [{"measurement": "koff", "setting": "[3]", "result": 0.95, "unit": "s⁻¹"}]}
